From paper PMC10128019

Molecular target: HA76Cda1 (Cda1 with the HA epitope inserted at position 76) (Ustilago maydis)
Assay: FRET or BRET

DyLight 550-labeled AFP1-His (AFP1^550) (natural protein)
FRET efficiency: 23%
